B1: Nedd4-2 WW2 (isolated WW-domain, GST removed) (domain or fragment)
chain: not shown
B2: Nedd4-2 WW2-3 (isolated protein, GST removed) (domain or fragment)
chain: TTPGLPSGWEERKDAKGRTYYVNHNNRTTTWTRPIMQLAEDGASGSATNSNNHLIEPQIRRPRSLSSPTVTLSAPLEGAKDSPVRRAVKDTLSNPQSPQPSPYNSPKPQHKVTQSFLPPGWEMRIAPNGRPFFIDHNTKTTTWEDPRLKFPVHM
B3: RNase (enzyme)
chain: KETAAAKFERQHMDSSTSAASSSNYCNQMMKSRNLTKDRCKPVNTFVHESLADVQAVCSQKNVACKNGQTNCYQSYSTMSITDCRETGSSKYPNCAYKTTQANKHIIVACEGNPYVPVHFDASV
B4: Nedd4 WW3 (isolated WW-domain, GST removed) (domain or fragment, UniProt P46934 840-873, looked up)
chain: GFLPKGWEVRHAPNGRPFFIDHNTKTTTWEDPRL
notes: Nedd4 WW-domain 3 (a Nedd4 with four WW-domains); also called WW-domain 3 of Nedd4; source: E. coli BL21, GST removed with thrombin or TEV protease, purified (glutathione-Sepharose, Superdex-75)
B5: Nedd4-2 WW1 (isolated WW-domain, GST removed) (domain or fragment)
chain: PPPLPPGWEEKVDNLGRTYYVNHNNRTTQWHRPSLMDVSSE

A value given as a limit tells only on which side of the number the result lay.

The target of this test is T1, SGK PY-motif peptide (human).
T1 construct: N-terminal cysteine of the printed peptide; stretch of human SGK (SGK1) with the PY motif PPFY (Y298); also called SGK peptide; source: synthetic peptide (Auspep)
T1 peptide: H-CLYGLPPFYSRNT-NH2
Description: SPR; BIAcore 2000; peptide immobilised on Sensor Chip CM5 by amine chemistry; isolated WW-domains injected at 20 µl/min in HBS-EP; KD estimated from steady state equilibrium responses. The following applies: both partners purified.
The Kd is the free concentration of one partner at which half of the binding sites on the other are occupied at equilibrium, for simple one-to-one binding. B1: the Kd was 105 µM.
B2: the Kd is 53.3 µM.
For the molecule B3, the Kd was > 600 µM.
Regarding B4, the Kd is 130 µM.
In the case of DLGPLPPGWEERIHLDGRTFYIDHNSKITQWEDPRLQNPAIT (domain or fragment) [Nedd4-2 WW4 (isolated WW-domain, GST removed)], the Kd was > 600 µM.
The figure for B5 is > 600 µM.

The values above are taken from publication PMC2921341, “Interaction of Serum- and Glucocorticoid Regulated Kinase 1 (SGK1) with the WW-Domains of Nedd4-2 Is Required for Epithelial Sodium Channel Regulation” (PLoS ONE, 2010).
